For 15 variants, reverse-splicing fitness results are on record in the RNAGym collection of RNA variant scans (doi:10.1093/molbev/msab373).

The labels stand for the following.
B1: Azoarcus group I ribozyme (parent)
chain: GUGCCUUGCGCCGGGAAACCACGCAAGGGAUGGUGUCAAAUUCGGCGAAACCUAAGCGCCCGCCCGGGCGUAUGGCAACGCCGAGCCAAGCUUCGGCGCCUGCGCCGAUGAAGGUGUAGAGACUAGACGGCACCCACCUAAGGCAAACGCUAUGGUGAAGGCAUAGUCCAGGGAGUGGCGAAAGUCACACAAACCGG

Variants of B1 are the subject of this data set. Briefly: reverse-splicing fitness (ratio to wild type); higher = more active; in vitro selection; Mg2+ level not given. A digest of the protocol: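 An in vitro group I ribozyme library with randomized positions was T7-transcribed and gel-purified. In triplicate, 10 pmol RNA in EPPS pH 7.5 was reacted with 50 pmoles of a 30-nt RNA substrate for 1 h at 37 °C across several added MgCl2 levels (1–48 mM), then stopped with EDTA. Products were reverse transcribed from a substrate-complementary primer, PCR-amplified and sequenced (HiSeq 4000). Fitness is a variant's read proportion after selection over that before, normalised to wild type.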
With GUGCCUUGCGCCGGGAAACCACGCAAGGGAUGGUGUCAAAUUCGGCGAAACCUAAGCGCCCGCCCGGGCGUAUGGCAACGCGGAGCCAAGCUUCGGCGCCUGCGCCGAUGAAGGUGUAGAGACUAGACGGCACCCACCUAAGGCAAACGCUAUGGUGAAGGCAUAGUCUAGGGAGGGGCGAAAGUCACACAAACCGG [C82G C169U U176G], the reverse-splicing fitness worked out at 0.00463.
For GUGCCUUGCGCCGGGAAACCACGCAAGGGAUGGUGUCAAAUUCGGCGAAACCUAAGCGCCCGCCCGGGCGUAUGGCAACGCCGAGCCAAGCUUCGGCGCCUGCGCCGAUGCAGGUGUAGUGACUAGACGGCACCCACCUAAGGCGAACGGUAUGGUGAAGGCAUAGUCGAGGGAGCGGCGAAAGUCACACAAACCGG [A111C A120U A145G C150G C169G U176C] the value was 0.00876; for GUGCCUUGCGCCGGGAAACCACGCAAGGGAUGGUGUCAAAUUCGGCGAAACCUAAGCGCCCGCCCGGGCGUAUGGCAACGCUGAGCCAAGCUUCGGCGCCUGCGCCGAUGUAGGUGUAGUGACUAGACGGCACCCACCUAAGGCCAACGAUAUGGUGAAGGCAUAGUCGAGGGAGCGGCGAAAGUCACACAAACCGG [C82U A111U A120U A145C C150A C169G U176C], 0.00255; for GUGCCUUGCGCCGGGAAACCACGCAAGGGAUGGUGUCAAAUUCGGCGAAACCUAAGCGCCCGCCCGGGCGUAUGGCAACGCCGAGCCAAGCUUCGGCGCCUGCGCCGAUGGAGGUGUAGGGACUAGACGGCACCCACCUAAGGCCAACGAUAUGGUGAAGGCAUAGUCAAGGGAGUGGCGAAAGUCACACAAACCGG [A111G A120G A145C C150A C169A], 0.0124.
Take GUGCCUUGCGCCGGGAAACCACGCAAGGGAUGGUGUCAAAUUCGGCGAAACCUAAGCGCCCGCCCGGGCGUAUGGCAACGCCGAGCCAAGCUUCGGCGCCUGCGCCGAUGAAGGUGUAGCGACUAGACGGCACCCACCUAAGGCAAACGUUAUGGUGAAGGCAUAGUCCAGGGAGGGGCGAAAGUCACACAAACCGG [A120C C150U U176G]: the reverse-splicing fitness turned out to be 0.181.
With GUGCCUUGCGCCGGGAAACCACGCAAGGGAUGGUGUCAAAUUCGGCGAAACCUAAGCGCCCGCCCGGGCGUAUGGCAACGCAGAGCCAAGCUUCGGCGCCUGCGCCGAUGUAGGUGUAGCGACUAGACGGCACCCACCUAAGGCUAACGAUAUGGUGAAGGCAUAGUCAAGGGAGAGGCGAAAGUCACACAAACCGG [C82A A111U A120C A145U C150A C169A U176A], the reverse-splicing fitness was found to be 0.0231.
As to GUGCCUUGCGCCGGGAAACCACGCAAGGGAUGGUGUCAAAUUCGGCGAAACCUAAGCGCCCGCCCGGGCGUAUGGCAACGCUGAGCCAAGCUUCGGCGCCUGCGCCGAUGCAGGUGUAGUGACUAGACGGCACCCACCUAAGGCCAACGCUAUGGUGAAGGCAUAGUCUAGGGAGCGGCGAAAGUCACACAAACCGG [C82U A111C A120U A145C C169U U176C], the reverse-splicing fitness amounted to 0.00263.
For GUGCCUUGCGCCGGGAAACCACGCAAGGGAUGGUGUCAAAUUCGGCGAAACCUAAGCGCCCGCCCGGGCGUAUGGCAACGCCGAGCCAAGCUUCGGCGCCUGCGCCGAUGAAGGUGUAGUGACUAGACGGCACCCACCUAAGGCUAACGCUAUGGUGAAGGCAUAGUCAAGGGAGUGGCGAAAGUCACACAAACCGG [A120U A145U C169A] the value was 0.0173; for GUGCCUUGCGCCGGGAAACCACGCAAGGGAUGGUGUCAAAUUCGGCGAAACCUAAGCGCCCGCCCGGGCGUAUGGCAACGCAGAGCCAAGCUUCGGCGCCUGCGCCGAUGAAGGUGUAGCGACUAGACGGCACCCACCUAAGGCGAACGUUAUGGUGAAGGCAUAGUCUAGGGAGUGGCGAAAGUCACACAAACCGG [C82A A120C A145G C150U C169U], 0.019.
On to GUGCCUUGCGCCGGGAAACCACGCAAGGGAUGGUGUCAAAUUCGGCGAAACCUAAGCGCCCGCCCGGGCGUAUGGCAACGCUGAGCCAAGCUUCGGCGCCUGCGCCGAUGAAGGUGUAGGGACUAGACGGCACCCACCUAAGGCGAACGGUAUGGUGAAGGCAUAGUCAAGGGAGAGGCGAAAGUCACACAAACCGG [C82U A120G A145G C150G C169A U176A], for which the reverse-splicing fitness was 0.0129.
As to GUGCCUUGCGCCGGGAAACCACGCAAGGGAUGGUGUCAAAUUCGGCGAAACCUAAGCGCCCGCCCGGGCGUAUGGCAACGCCGAGCCAAGCUUCGGCGCCUGCGCCGAUGAAGGUGUAGUGACUAGACGGCACCCACCUAAGGCGAACGGUAUGGUGAAGGCAUAGUCGAGGGAGCGGCGAAAGUCACACAAACCGG [A120U A145G C150G C169G U176C], the reverse-splicing fitness is 0.00575.
For GUGCCUUGCGCCGGGAAACCACGCAAGGGAUGGUGUCAAAUUCGGCGAAACCUAAGCGCCCGCCCGGGCGUAUGGCAACGCUGAGCCAAGCUUCGGCGCCUGCGCCGAUGUAGGUGUAGCGACUAGACGGCACCCACCUAAGGCUAACGGUAUGGUGAAGGCAUAGUCUAGGGAGGGGCGAAAGUCACACAAACCGG [C82U A111U A120C A145U C150G C169U U176G] the value was 0.00523; for GUGCCUUGCGCCGGGAAACCACGCAAGGGAUGGUGUCAAAUUCGGCGAAACCUAAGCGCCCGCCCGGGCGUAUGGCAACGCCGAGCCAAGCUUCGGCGCCUGCGCCGAUGCAGGUGUAGGGACUAGACGGCACCCACCUAAGGCGAACGGUAUGGUGAAGGCAUAGUCGAGGGAGGGGCGAAAGUCACACAAACCGG [A111C A120G A145G C150G C169G U176G], 0.00543; for GUGCCUUGCGCCGGGAAACCACGCAAGGGAUGGUGUCAAAUUCGGCGAAACCUAAGCGCCCGCCCGGGCGUAUGGCAACGCUGAGCCAAGCUUCGGCGCCUGCGCCGAUGUAGGUGUAGGGACUAGACGGCACCCACCUAAGGCGAACGCUAUGGUGAAGGCAUAGUCGAGGGAGAGGCGAAAGUCACACAAACCGG [C82U A111U A120G A145G C169G U176A], 0.0214.
For GUGCCUUGCGCCGGGAAACCACGCAAGGGAUGGUGUCAAAUUCGGCGAAACCUAAGCGCCCGCCCGGGCGUAUGGCAACGCCGAGCCAAGCUUCGGCGCCUGCGCCGAUGUAGGUGUAGCGACUAGACGGCACCCACCUAAGGCAAACGGUAUGGUGAAGGCAUAGUCAAGGGAGGGGCGAAAGUCACACAAACCGG [A111U A120C C150G C169A U176G] the value was 0.00573.
